The assay addresses T1, PTP1B (residue 1-321) (UniProt P18031).
T1 sequence: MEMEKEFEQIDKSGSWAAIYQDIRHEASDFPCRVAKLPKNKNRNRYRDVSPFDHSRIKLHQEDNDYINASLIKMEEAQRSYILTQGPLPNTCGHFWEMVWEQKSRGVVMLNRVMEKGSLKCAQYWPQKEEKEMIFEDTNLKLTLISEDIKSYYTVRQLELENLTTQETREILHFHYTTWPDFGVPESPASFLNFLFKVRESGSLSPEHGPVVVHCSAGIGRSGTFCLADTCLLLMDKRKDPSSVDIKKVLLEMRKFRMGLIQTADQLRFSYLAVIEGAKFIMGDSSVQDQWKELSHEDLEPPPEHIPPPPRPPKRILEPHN

Where no end group is shown, it is not given here. [ ]: non-standard residue; d: D form. pY = N[C@@H](Cc1ccc(OP(=O)(O)O)cc1)C(=O)O

Regarding ELD[pY][pY]DSHN [alpha-actinin4 derived di-phospho-tyrosine peptide ELDpYpYDSHN], the kcat/KM of dephosphorylation of the peptide by purified PTP1B turned out to be 2.17e+06 M^−1 S^−1.

Values taken from article PMC11060668.
